Assay results taken from PMC10397247.
Read-outs that look alike come from different tables or passages of the source. Blank lines part the entries; values can stand above or below the binder they belong to.

Columns and labels:
[1] = molecular target: T1, 4H591-bN; assay: two-hybrid library CCNG1;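 also: natural log of median RNA to DNA barcode read ratio; higher means stronger binding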
T1 chain: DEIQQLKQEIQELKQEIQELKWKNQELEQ

[2] = molecular target: T2, 4H619-bA; assay: two-hybrid library CCNG1;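 also: natural log of median RNA to DNA barcode read ratio; higher means stronger binding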
T2 chain: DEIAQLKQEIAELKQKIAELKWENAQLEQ

[3] = molecular target: T3, 4H584-bA; assay: two-hybrid library CCNG1;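 also: natural log of median RNA to DNA barcode read ratio; higher means stronger binding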
T3 chain: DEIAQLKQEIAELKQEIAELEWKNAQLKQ

[4] = molecular target: T4, 4H850-bA; assay: two-hybrid library CCNG1;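 also: natural log of median RNA to DNA barcode read ratio; higher means stronger binding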
T4 chain: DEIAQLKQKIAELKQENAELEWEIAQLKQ

[5] = molecular target: T5, 4H906-bA; assay: two-hybrid library CCNG1;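 also: natural log of median RNA to DNA barcode read ratio; higher means stronger binding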
T5 chain: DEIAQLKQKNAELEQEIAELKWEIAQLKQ

[6] = molecular target: GCN2_T; assay: two-hybrid library CCmax;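 also: natural log of median RNA to DNA barcode read ratio; higher means stronger binding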
[7] = molecular target: T6, 4H535-AA; assay: two-hybrid library CCmax; settings: mean of both orientations
T6 chain: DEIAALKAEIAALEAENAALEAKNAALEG

[8] = molecular target: 4H_GCN4; assay: two-hybrid library CCmax
[9] = molecular target: T7, 4H895-AA; assay: two-hybrid library CCmax; settings: mean of both orientations
T7 chain: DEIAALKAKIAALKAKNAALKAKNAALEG

[10] = molecular target: T8, 4H58-AA; assay: two-hybrid library CCmax; settings: mean of both orientations
T8 chain: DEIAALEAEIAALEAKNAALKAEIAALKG

[11] = molecular target: T9, 4H486-AA; assay: two-hybrid library CCmax
T9 chain: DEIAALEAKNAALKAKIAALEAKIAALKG

[12] = molecular target: T10, 4H_BCR; assay: two-hybrid library CCmax; settings: mean of both orientations
T10 chain: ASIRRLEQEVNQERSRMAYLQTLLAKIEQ

[13] = molecular target: T11, 4H_APH; assay: two-hybrid library CCmax
T11 chain: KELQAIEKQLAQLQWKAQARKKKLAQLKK

[14] = molecular target: T12, O9-bP; assay: two-hybrid library CCNG1
T12 chain: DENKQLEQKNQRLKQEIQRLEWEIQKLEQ

[15] = molecular target: T13, O8-bP; assay: two-hybrid library CCNG1
T13 chain: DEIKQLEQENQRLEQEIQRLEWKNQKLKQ

[16] = molecular target: T14, P8mS; assay: two-hybrid library CC1; settings: mean of both orientations
T14 chain: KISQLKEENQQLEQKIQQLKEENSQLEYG

[17] = molecular target: T15, P8; assay: two-hybrid library CC1; settings: mean of both orientations
T15 chain: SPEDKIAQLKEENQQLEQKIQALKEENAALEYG

[18] = molecular target: T16, P7mS; assay: two-hybrid library CC1
T16 chain: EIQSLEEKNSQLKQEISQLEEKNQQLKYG

[19] = molecular target: T17, P9; assay: two-hybrid library CC1; settings: mean of both orientations
T17 chain: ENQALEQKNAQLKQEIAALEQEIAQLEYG

[20] = molecular target: T18, 4H906-bN; assay: two-hybrid library CCNG1
T18 chain: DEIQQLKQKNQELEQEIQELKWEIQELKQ

[21] = molecular target: T19, 4H584-bN; assay: two-hybrid library CCNG1
T19 chain: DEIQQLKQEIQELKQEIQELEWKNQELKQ

[22] = molecular target: T20, 4H850-bN; assay: two-hybrid library CCNG1
T20 chain: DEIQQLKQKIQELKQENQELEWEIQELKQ

[23] = molecular target: T21, 4H619-bN; assay: two-hybrid library CCNG1
T21 chain: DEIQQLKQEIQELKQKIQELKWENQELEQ

[24] = molecular target: T22, 4H570-bN; assay: two-hybrid library CCNG1
T22 chain: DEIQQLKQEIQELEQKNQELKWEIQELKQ

[25] = molecular target: T23, 4H3974-bN; assay: two-hybrid library CCNG1
T23 chain: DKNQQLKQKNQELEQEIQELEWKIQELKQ

[26] = molecular target: T24, 4H683-bH; assay: two-hybrid library CCNG1
T24 chain: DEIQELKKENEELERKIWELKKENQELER

[27] = molecular target: T25, 4H968-bH; assay: two-hybrid library CCNG1
T25 chain: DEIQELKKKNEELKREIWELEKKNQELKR

[28] = molecular target: T26, 4H457-bH; assay: two-hybrid library CCNG1
T26 chain: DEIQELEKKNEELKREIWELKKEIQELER

[29] = molecular target: T27, 4H754-bH; assay: two-hybrid library CCNG1
T27 chain: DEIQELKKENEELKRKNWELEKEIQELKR

[30] = molecular target: T28, 4H918-bH; assay: two-hybrid library CCNG1
T28 chain: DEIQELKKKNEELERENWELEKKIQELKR

[31] = molecular target: T29, 4H855-bH; assay: two-hybrid library CCNG1
T29 chain: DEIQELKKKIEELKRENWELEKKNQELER

[32] = molecular target: T30, 4H968-bA; assay: two-hybrid library CCNG1
T30 chain: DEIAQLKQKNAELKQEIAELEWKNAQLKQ

[33] = molecular target: T31, 4H780-bH; assay: two-hybrid library CCNG1
T31 chain: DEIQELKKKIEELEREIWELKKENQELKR

[34] = molecular target: T32, 4H797-bH; assay: two-hybrid library CCNG1
T32 chain: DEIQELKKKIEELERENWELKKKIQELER

[35] = molecular target: T33, 4H953-bH; assay: two-hybrid library CCNG1
T33 chain: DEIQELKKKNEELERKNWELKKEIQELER

[36] = molecular target: T34, 4H575-bH; assay: two-hybrid library CCNG1
T34 chain: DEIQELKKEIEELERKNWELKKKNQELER

[37] = molecular target: T35, 4H4073-bH; assay: two-hybrid library CCNG1
T35 chain: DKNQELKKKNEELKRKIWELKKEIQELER

[38] = molecular target: T36, 4H568-bA; assay: two-hybrid library CCNG1
T36 chain: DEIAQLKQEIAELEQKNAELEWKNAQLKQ

[39] = molecular target: T37, 4H906-bH; assay: two-hybrid library CCNG1
T37 chain: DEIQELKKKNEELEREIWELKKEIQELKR

[40] = molecular target: T38, 4H3926-bH; assay: two-hybrid library CCNG1; settings: mean of both orientations
T38 chain: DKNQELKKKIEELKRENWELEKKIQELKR

[41] = molecular target: T39, 4H626-bH; assay: two-hybrid library CCNG1
T39 chain: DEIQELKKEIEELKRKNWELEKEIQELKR

[42] = molecular target: T40, 4H591-bH; assay: two-hybrid library CCNG1
T40 chain: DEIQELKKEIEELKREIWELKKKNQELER

[43] = molecular target: T41, 4H3974-bA; assay: two-hybrid library CCNG1
T41 chain: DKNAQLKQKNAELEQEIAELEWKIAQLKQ

[44] = molecular target: T42, 4H570-bA; assay: two-hybrid library CCNG1
T42 chain: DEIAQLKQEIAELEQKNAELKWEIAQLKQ

[45] = molecular target: T43, 4H591-bA; assay: two-hybrid library CCNG1
T43 chain: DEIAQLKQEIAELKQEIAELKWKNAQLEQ

[46] = molecular target: T44, 4H3926-bA; assay: two-hybrid library CCNG1; settings: mean of both orientations
T44 chain: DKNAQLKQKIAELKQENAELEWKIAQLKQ

[47] = molecular target: T45, 4H4073-bA; assay: two-hybrid library CCNG1
T45 chain: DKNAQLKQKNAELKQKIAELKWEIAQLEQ

[48] = molecular target: T46, 4H953-bA; assay: two-hybrid library CCNG1
T46 chain: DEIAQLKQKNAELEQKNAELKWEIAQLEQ

[49] = molecular target: T47, 4H575-bA; assay: two-hybrid library CCNG1
T47 chain: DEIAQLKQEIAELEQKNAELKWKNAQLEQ

[50] = molecular target: T48, 4H626-bA; assay: two-hybrid library CCNG1
T48 chain: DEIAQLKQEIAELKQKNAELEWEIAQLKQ

[51] = molecular target: T49, 4H457-bA; assay: two-hybrid library CCNG1
T49 chain: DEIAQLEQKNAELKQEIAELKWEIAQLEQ

[52] = molecular target: T50, 4H855-bA; assay: two-hybrid library CCNG1
T50 chain: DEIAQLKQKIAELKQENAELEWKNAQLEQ

[53] = molecular target: T51, 4H918-bA; assay: two-hybrid library CCNG1
T51 chain: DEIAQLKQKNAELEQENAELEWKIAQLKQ

[54] = molecular target: T52, 4H780-bA; assay: two-hybrid library CCNG1
T52 chain: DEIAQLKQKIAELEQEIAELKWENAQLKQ

[55] = molecular target: T53, 4H683-bA; assay: two-hybrid library CCNG1
T53 chain: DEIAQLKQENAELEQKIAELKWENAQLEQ

[56] = molecular target: T54, 4H754-bA; assay: two-hybrid library CCNG1
T54 chain: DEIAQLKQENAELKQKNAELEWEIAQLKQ

[57] = molecular target: T55, 4H797-bA; assay: two-hybrid library CCNG1
T55 chain: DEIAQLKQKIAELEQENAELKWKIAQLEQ

Sequence of 4H_GCN4 (chain, as listed by the source): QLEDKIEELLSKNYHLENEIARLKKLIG

Binder: DEIAQLKQEIAELKQEIAELEWKNAQLKQ [4H584-bA]
interaction score [1]: -0.664
interaction score [2]: 1.1
interaction score [3]: 0.598
interaction score [4]: 0.521
interaction score [5]: -0.288

Binder: DEIAALEAKNAALKAKIAALEAKIAALKG [4H486-AA]
interaction score [6]: -0.249
interaction score [7]: -1.16
interaction score [8]: -1.06
interaction score [9]: -1.84
interaction score [10]: -0.289
interaction score [11]: 0.819
interaction score [12]: -1.34
interaction score [13]: -1.97

Binder: EIQSLEEKNSQLKQEISQLEEKNQQLKYG [P7mS]
interaction score [16]: -0.225
interaction score [17]: 0.285
interaction score [18]: -2.53
interaction score [19]: -2.27

Binder: DEIQQLKQEIQELKQEIQELEWKNQELKQ [4H584-bN]
interaction score [20]: -0.43
interaction score [21]: 0.406
interaction score [22]: 0.196
interaction score [23]: 1.21

Binder: DEIQELEKKNEELKREIWELKKEIQELER [4H457-bH]
interaction score [26]: -0.297
interaction score [27]: 0.389
interaction score [28]: 0.207
interaction score [29]: -0.826
interaction score [30]: -0.832
interaction score [31]: -1.6
interaction score [32]: 0.553
interaction score [33]: -1.57
interaction score [34]: -0.848
interaction score [35]: -0.857
interaction score [36]: -1.98

Second part, the binder after the results:

interaction score ([14]; mean of both orientations): -0.872
Binder: DENKQLEQKNQRLKQEIQRLEWEIQKLEQ [O9-bP]

interaction score [14]: -0.57
interaction score [15]: -1.1
Binder: DEIKQLEQENQRLEQEIQRLEWKNQKLKQ [O8-bP]

interaction score [20]: -0.832
interaction score [21]: -0.919
interaction score [24]: -1.69
interaction score [25]: -0.444
interaction score [22]: 0.5
interaction score [23]: -0.273
Binder: DKNQQLKQKNQELEQEIQELEWKIQELKQ [4H3974-bN]

interaction score [26]: -0.233
interaction score [27]: 1.04
interaction score [28]: 0.423
interaction score [29]: 0.0882
interaction score [37]: -0.649
interaction score [31]: -0.798
interaction score [38]: 0.77
interaction score [39]: -1.18
interaction score [40]: 0.997
interaction score [41]: -1.31
interaction score [33]: -0.369
interaction score [42]: -1.8
interaction score [34]: 0.147
interaction score [35]: 1.52
interaction score [36]: -0.061
Binder: DKNQELKKKIEELKRENWELEKKIQELKR [4H3926-bH]

interaction score [26]: -0.249
interaction score [27]: -1.06
interaction score [28]: -0.419
interaction score [29]: -1.38
interaction score [37]: -0.834
interaction score [31]: -1.09
interaction score [4]: -2.46
interaction score [33]: -0.609
interaction score [34]: -0.554
interaction score [35]: -1.39
interaction score [36]: -1.03
Binder: DKNQELKKKNEELKRKIWELKKEIQELER [4H4073-bH]

interaction score [2]: -0.503
interaction score [3]: -1.38
interaction score [43]: -0.293
interaction score [44]: -0.136
interaction score [4]: -1.84
interaction score [5]: -1.37
Binder: DKNAQLKQKNAELEQEIAELEWKIAQLKQ [4H3974-bA]

interaction score [45]: -1.19
interaction score [46]: -0.117
interaction score [47]: -0.409
interaction score [48]: 0.769
interaction score [49]: 0.34
interaction score [50]: -0.259
interaction score [51]: 0.866
interaction score [52]: -1.23
interaction score [53]: -0.539
interaction score [54]: -0.771
interaction score [32]: 1.59
interaction score [55]: -0.786
interaction score [56]: -0.909
interaction score [5]: -1.13
interaction score [57]: 0
Binder: DKNAQLKQKIAELKQENAELEWKIAQLKQ [4H3926-bA]
